# Literature values in publication PMC3814599.
# “And” between values parts separate entries of the source, which are not always exact repeats. Equal values may be shown once.
# Target: HIV-1 capsid (CA) NTD (Human immunodeficiency virus 1) (UniProt O93182)
# Sequence of NUP358 (P49792 whole entry): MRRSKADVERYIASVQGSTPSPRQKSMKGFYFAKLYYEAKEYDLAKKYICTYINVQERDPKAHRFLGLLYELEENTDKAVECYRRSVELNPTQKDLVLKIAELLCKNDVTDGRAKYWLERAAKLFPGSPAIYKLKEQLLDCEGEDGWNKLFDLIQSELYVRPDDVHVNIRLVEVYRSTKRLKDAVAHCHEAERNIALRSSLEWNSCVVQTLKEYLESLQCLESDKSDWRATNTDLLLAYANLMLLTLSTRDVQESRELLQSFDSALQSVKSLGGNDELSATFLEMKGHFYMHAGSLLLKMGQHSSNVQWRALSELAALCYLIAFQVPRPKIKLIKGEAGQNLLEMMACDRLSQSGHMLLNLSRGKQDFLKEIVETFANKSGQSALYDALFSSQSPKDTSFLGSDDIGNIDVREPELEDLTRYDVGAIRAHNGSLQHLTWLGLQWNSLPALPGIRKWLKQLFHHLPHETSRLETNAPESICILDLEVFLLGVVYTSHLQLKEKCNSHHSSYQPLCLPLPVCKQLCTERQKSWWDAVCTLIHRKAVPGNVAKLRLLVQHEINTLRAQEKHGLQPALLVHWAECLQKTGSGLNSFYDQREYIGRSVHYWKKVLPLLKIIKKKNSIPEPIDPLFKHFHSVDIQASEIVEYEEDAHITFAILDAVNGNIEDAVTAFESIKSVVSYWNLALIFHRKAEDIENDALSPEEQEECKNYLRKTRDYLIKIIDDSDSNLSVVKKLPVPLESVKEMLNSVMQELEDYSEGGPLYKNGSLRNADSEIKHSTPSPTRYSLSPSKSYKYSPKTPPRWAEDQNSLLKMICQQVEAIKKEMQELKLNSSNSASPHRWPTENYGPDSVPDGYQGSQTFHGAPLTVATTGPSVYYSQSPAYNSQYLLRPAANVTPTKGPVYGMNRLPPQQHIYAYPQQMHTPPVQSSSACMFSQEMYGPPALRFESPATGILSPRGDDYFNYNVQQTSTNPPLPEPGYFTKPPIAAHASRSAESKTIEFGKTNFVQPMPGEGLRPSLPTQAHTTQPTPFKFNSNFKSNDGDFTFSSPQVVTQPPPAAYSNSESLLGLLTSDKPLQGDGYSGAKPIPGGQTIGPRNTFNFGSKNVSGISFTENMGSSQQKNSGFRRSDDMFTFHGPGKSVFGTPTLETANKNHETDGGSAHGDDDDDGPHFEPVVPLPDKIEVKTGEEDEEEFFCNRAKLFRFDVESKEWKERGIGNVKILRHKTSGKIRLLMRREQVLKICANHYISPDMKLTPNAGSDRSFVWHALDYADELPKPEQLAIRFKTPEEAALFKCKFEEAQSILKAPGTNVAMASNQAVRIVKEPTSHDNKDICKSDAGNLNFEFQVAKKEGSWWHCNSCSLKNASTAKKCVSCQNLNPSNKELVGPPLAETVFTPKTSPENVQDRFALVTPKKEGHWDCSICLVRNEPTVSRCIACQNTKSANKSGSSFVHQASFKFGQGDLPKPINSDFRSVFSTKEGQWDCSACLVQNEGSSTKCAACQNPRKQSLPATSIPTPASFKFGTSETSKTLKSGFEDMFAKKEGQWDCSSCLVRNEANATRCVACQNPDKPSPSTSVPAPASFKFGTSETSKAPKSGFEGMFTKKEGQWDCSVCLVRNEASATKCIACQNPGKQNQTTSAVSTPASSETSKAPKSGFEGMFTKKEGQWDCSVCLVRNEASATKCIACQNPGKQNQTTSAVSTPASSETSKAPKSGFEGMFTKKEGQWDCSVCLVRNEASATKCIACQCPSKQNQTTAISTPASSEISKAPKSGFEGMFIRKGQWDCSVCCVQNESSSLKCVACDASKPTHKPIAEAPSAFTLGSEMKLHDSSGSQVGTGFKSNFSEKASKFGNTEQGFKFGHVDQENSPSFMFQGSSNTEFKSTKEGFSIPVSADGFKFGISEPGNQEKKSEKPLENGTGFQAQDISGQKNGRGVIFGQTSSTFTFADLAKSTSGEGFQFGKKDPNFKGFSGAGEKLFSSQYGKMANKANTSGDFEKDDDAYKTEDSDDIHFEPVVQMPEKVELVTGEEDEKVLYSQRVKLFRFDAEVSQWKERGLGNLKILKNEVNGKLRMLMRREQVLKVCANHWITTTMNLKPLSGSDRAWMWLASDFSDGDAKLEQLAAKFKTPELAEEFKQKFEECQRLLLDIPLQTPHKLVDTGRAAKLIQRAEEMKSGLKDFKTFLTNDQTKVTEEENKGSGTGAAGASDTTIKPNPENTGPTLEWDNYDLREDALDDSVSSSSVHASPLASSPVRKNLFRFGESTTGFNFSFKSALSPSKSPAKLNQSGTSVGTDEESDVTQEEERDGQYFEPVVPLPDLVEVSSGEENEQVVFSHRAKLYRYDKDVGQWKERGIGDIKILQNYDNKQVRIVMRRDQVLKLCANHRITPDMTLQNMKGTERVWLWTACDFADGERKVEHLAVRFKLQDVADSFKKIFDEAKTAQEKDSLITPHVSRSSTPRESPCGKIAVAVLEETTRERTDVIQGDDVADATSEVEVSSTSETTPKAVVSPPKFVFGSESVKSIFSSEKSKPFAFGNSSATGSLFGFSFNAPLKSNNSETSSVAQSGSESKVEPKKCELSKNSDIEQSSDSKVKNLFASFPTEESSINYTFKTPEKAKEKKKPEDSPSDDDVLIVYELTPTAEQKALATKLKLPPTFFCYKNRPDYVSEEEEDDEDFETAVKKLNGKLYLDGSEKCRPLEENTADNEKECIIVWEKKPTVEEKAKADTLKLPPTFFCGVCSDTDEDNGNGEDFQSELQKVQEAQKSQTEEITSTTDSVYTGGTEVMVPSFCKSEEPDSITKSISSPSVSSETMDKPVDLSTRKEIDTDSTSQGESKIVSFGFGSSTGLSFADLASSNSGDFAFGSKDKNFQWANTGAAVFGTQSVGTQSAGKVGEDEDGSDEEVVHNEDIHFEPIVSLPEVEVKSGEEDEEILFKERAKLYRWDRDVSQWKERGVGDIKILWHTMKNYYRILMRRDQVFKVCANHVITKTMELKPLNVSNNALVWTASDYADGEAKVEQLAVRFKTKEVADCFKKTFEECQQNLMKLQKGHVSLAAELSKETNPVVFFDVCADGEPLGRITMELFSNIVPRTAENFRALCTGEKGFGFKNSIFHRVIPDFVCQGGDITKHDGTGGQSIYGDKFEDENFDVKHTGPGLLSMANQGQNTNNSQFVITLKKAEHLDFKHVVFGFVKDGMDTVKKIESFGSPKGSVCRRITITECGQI
substance,measurement,value
NUP358 (from UniProt P49792),Kd,150 µM and 16 µM
